Assay results taken from patent US20030186329.

Key:
[1] = target: fusion of maltose binding protein, QRGRSA and the HY4 gene product of Arabidopsis thaliana (UniProt Q43125)
[2] = system: T1, peptide (I), native cleavage sequence from plasminogen
T1 sequence: KKSPGRVVGGSVAH

[3] = system: T2, peptide (II) of Table 1, LGGSGQRGRKALE
T2 sequence: LGGSGQRGRKALE

[4] = system: T3, peptide (III) of Table 1, LGGSGERARGALE
T3 sequence: LGGSGERARGALE

[5] = system: T4, peptide (IV) of Table 1, LGGSGHYGRSGLE
T4 sequence: LGGSGHYGRSGLE

[6] = system: T5, peptide (V) of Table 1, YGRS
T5 sequence: YGRS

[7] = system: T6, peptide (VI) of Table 1, RGRK
T6 sequence: RGRK

[8] = system: T7, peptide (VII) of Table 1, FRGRK
T7 sequence: FRGRK

peptide GSGKS [9] = system: T8, peptide GSGKS
T8 sequence: GSGKS

peptide LGGRGRSANAILE [10] = system: T9, peptide LGGRGRSANAILE
T9 sequence: LGGRGRSANAILE

peptide LGGSGRKASLSLE [11] = system: T10, peptide LGGSGRKASLSLE
T10 sequence: LGGSGRKASLSLE

peptide LGGSGRNAQVRLE [12] = system: T11, peptide LGGSGRNAQVRLE
T11 sequence: LGGSGRNAQVRLE

peptide LGGSGRSANAILE [13] = system: T12, peptide LGGSGRSANAILE
T12 sequence: LGGSGRSANAILE

peptide LGGSGRSATRDLE [14] = system: T13, peptide LGGSGRSATRDLE
T13 sequence: LGGSGRSATRDLE

peptide LGGYGRSANAILE [15] = system: T14, peptide LGGYGRSANAILE
T14 sequence: LGGYGRSANAILE

peptide LGQRGRSANAILE [16] = system: T15, peptide LGQRGRSANAILE
T15 sequence: LGQRGRSANAILE

peptide SGKS [17] = system: T16, peptide SGKS
T16 sequence: SGKS

peptide SGRSA [18] = system: T17, peptide SGRSA
T17 sequence: SGRSA

peptide SGRS [19] = system: T18, peptide SGRS
T18 sequence: SGRS

[20] = system: phage 33, displaying hexamer RSANAI
[21] = system: phage clone 34, displaying hexamer RNAQVR
[22] = system: phage clone 35, displaying hexamer RSATRD
[23] = system: phage clone 36, displaying hexamer RSAKVD
[24] = system: phage clone 37, displaying hexamer RKASLS
[25] = system: phage clone 38, displaying hexamer RRAVSN
[26] = system: phage clone 39, displaying hexamer RSAVVK
[27] = system: phage clone 40, displaying hexamer RSSSSH
peptide LGGSGRSANAILE [28] = system: T12, peptide LGGSGRSANAILE; experiment: kinetics of peptide hydrolysis by u-PA, HPLC, Eadie-Hofstee
[29] = system: T1, peptide (I), native cleavage sequence from plasminogen; experiment: kinetics of peptide hydrolysis by the enzyme, HPLC, Eadie-Hofstee
[30] = system: T2, peptide (II) of Table 1, LGGSGQRGRKALE; experiment: as above
[31] = system: T3, peptide (III) of Table 1, LGGSGERARGALE; experiment: as above
[32] = system: T4, peptide (IV) of Table 1, LGGSGHYGRSGLE; experiment: as above
peptide LGGRGRSANAILE [33] = system: T9, peptide LGGRGRSANAILE; experiment: as above
peptide LGGSGRKASLSLE [34] = system: T10, peptide LGGSGRKASLSLE; experiment: as above
peptide LGGSGRNAQVRLE [35] = system: T11, peptide LGGSGRNAQVRLE; experiment: as above
peptide LGGSGRSANAILE [36] = system: T12, peptide LGGSGRSANAILE; experiment: as above
peptide LGGSGRSATRDLE [37] = system: T13, peptide LGGSGRSATRDLE; experiment: as above
peptide LGGYGRSANAILE [38] = system: T14, peptide LGGYGRSANAILE; experiment: as above
peptide LGQRGRSANAILE [39] = system: T15, peptide LGQRGRSANAILE; experiment: as above
[40] = system: T5, peptide (V) of Table 1, YGRS; experiment: kinetics of peptide hydrolysis by the enzyme, HILIC HPLC, Eadie-Hofstee
[41] = system: T6, peptide (VI) of Table 1, RGRK; experiment: as above
[42] = system: T7, peptide (VII) of Table 1, FRGRK; experiment: as above
peptide GSGKS [43] = system: T8, peptide GSGKS; experiment: as above
peptide SGKS [44] = system: T16, peptide SGKS; experiment: as above
peptide SGRSA [45] = system: T17, peptide SGRSA; experiment: as above
peptide SGRS [46] = system: T18, peptide SGRS; experiment: as above

Sequence of fusion of maltose binding protein, QRGRSA and the HY4 gene product of Arabidopsis thaliana (Q43125 other isoform, or with tags, fused parts or gaps): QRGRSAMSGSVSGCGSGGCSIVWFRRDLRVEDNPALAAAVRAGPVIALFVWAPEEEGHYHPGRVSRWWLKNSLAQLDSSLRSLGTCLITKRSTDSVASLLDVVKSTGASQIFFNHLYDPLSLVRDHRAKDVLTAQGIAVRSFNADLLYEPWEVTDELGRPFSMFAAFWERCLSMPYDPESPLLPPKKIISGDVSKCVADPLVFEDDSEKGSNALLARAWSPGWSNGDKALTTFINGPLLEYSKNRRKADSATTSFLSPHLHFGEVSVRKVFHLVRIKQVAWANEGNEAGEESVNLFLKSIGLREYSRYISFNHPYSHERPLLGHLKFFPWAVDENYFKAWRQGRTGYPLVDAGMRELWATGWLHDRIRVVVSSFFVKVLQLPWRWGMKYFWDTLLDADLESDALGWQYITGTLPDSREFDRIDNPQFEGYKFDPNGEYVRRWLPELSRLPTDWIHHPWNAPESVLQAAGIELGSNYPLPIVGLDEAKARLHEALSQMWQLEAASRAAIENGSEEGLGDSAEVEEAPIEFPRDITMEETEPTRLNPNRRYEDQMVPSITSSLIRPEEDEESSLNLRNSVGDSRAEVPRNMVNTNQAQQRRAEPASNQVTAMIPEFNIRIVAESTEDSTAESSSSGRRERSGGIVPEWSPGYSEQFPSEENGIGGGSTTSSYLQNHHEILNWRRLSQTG

urokinase-type plasminogen activator (u-PA)
cleavage of fusion protein, SDS-PAGE [1]: whereas u-PA did not | kcat [2]: 0.003 s⁻¹ | kcat/Km [2]: 0.88 M⁻¹ s⁻¹ | kcat [3]: 0.02 s⁻¹ | kcat/Km [3]: 9.2 M⁻¹ s⁻¹ | kcat [4]: 0.004 s⁻¹ | kcat/Km [4]: 4 M⁻¹ s⁻¹ | kcat [5]: 0.059 s⁻¹ | kcat/Km [5]: 15 M⁻¹ s⁻¹ | kcat [6]: 2.6 s⁻¹ | kcat/Km [6]: 230 M⁻¹ s⁻¹ | kcat [7]: 0.76 s⁻¹ | kcat/Km [7]: 16 M⁻¹ s⁻¹ | kcat [8]: 0.14 s⁻¹ | kcat/Km [8]: 16 M⁻¹ s⁻¹ | kcat (peptide GSGKS [9]): 0.82 s⁻¹ | kcat/Km (peptide GSGKS [9]): 193 M⁻¹ s⁻¹ | kcat (peptide LGGRGRSANAILE [10]): 0.08 s⁻¹ | kcat/Km (peptide LGGRGRSANAILE [10]): 67 M⁻¹ s⁻¹ | kcat (peptide LGGSGRKASLSLE [11]): 1.14 s⁻¹ | kcat/Km (peptide LGGSGRKASLSLE [11]): 1010 M⁻¹ s⁻¹ | kcat (peptide LGGSGRNAQVRLE [12]): 3.69 s⁻¹ | kcat/Km (peptide LGGSGRNAQVRLE [12]): 3200 M⁻¹ s⁻¹ | fold improvement as substrate against control peptide (I) (peptide LGGSGRSANAILE [13]): by factors of 840-5300 | fold increase of kcat against control peptide (I) (peptide LGGSGRSANAILE [13]): increased by a factor of more than 940 | kcat (peptide LGGSGRSANAILE [13]): 2.83 s⁻¹ | kcat/Km (peptide LGGSGRSANAILE [13]): 4700 M⁻¹ s⁻¹ | fold improvement as substrate against control peptide (I) (peptide LGGSGRSATRDLE [14]): by factors of 840-5300 | kcat (peptide LGGSGRSATRDLE [14]): 0.54 s⁻¹ | kcat/Km (peptide LGGSGRSATRDLE [14]): 740 M⁻¹ s⁻¹ | kcat (peptide LGGYGRSANAILE [15]): 0.7 s⁻¹ | kcat/Km (peptide LGGYGRSANAILE [15]): 318 M⁻¹ s⁻¹ | kcat (peptide LGQRGRSANAILE [16]): 0.068 s⁻¹ | kcat/Km (peptide LGQRGRSANAILE [16]): 45 M⁻¹ s⁻¹ | fold decrease of catalytic efficiency against peptide (VI) SGRS (peptide SGKS [17]): by a factor of 7 for u-PA | kcat (peptide SGKS [17]): 1.22 s⁻¹ | kcat/Km (peptide SGKS [17]): 154 M⁻¹ s⁻¹ | kcat (peptide SGRSA [18]): 3.7 s⁻¹ | kcat/Km (peptide SGRSA [18]): 1200 M⁻¹ s⁻¹ | kcat (peptide SGRS [19]): 2.3 s⁻¹ | kcat/Km (peptide SGRS [19]): 1100 M⁻¹ s⁻¹ | dot blot analysis under the most stringent conditions of digestion [20]: proved to be particularly labile u-PA substrates | dot blot analysis under the most stringent conditions of digestion [21]: proved to be particularly labile u-PA substrates | dot blot analysis under the most stringent conditions of digestion [22]: proved to be particularly labile u-PA substrates | dot blot analysis under the most stringent conditions of digestion [23]: proved to be particularly labile u-PA substrates | dot blot analysis under the most stringent conditions of digestion [24]: proved to be particularly labile u-PA substrates | dot blot analysis under the most stringent conditions of digestion [25]: proved to be particularly labile u-PA substrates | dot blot analysis under the most stringent conditions of digestion [26]: proved to be particularly labile u-PA substrates | dot blot analysis under the most stringent conditions of digestion [27]: proved to be particularly labile u-PA substrates | fold reduction of Km against control peptide (I) (peptide LGGSGRSANAILE [28]): reduced by a factor of 5.6 | Km [29]: 3400 µM | Km [30]: 2180 µM | Km [31]: 970 µM | Km [32]: 3800 µM | Km (peptide LGGRGRSANAILE [33]): 1200 µM | Km (peptide LGGSGRKASLSLE [34]): 1130 µM | Km (peptide LGGSGRNAQVRLE [35]): 1160 µM | Km (peptide LGGSGRSANAILE [36]): 603 µM | Km (peptide LGGSGRSATRDLE [37]): 733 µM | Km (peptide LGGYGRSANAILE [38]): 2200 µM | Km (peptide LGQRGRSANAILE [39]): 1500 µM | Km [40]: 11400 µM | Km [41]: 46500 µM | Km [42]: 8600 µM | Km (peptide GSGKS [43]): 4250 µM | Km (peptide SGKS [44]): 7900 µM | Km (peptide SGRSA [45]): 3100 µM | Km (peptide SGRS [46]): 2100 µM
